Paper PMC8163506, “A novel ATP dependent dimethylsulfoniopropionate lyase in bacteria that releases dimethyl sulfide and acryloyl-CoA” (eLife, 2021)

Target: DddX (ATP-dependent DMSP lyase) of Psychrobacter sp. D2, recombinant (Psychrobacter sp. D2)
Assay: SEC; gel filtration of purified DddX against molecular mass standards (semilog plot of mass versus Kav)

- stoichiometry N: 2
Substance: DddX (ATP-dependent DMSP lyase) of Psychrobacter sp. D2, recombinant (enzyme)
